Measurements reported in US7198903B2, “Binding domains between presenilins and their substrates as targets for drug screening” (Vlaams Interuniversitair Instituut voor Biotechnologie VZW, priority 2001, dated 2007).

Target: T1, γ-secretase cleavage of APP-C99 (CHAPS extracts of HeLa cell membranes) (Homo sapiens, UniProt P49768)
T1 construct: CHAPS extracts of HeLa cell membranes were incubated with the APP-C99flag-tagged substrate; endogenous in cells; host or cells: HeLa cell membranes (CHAPS extract)
Test: cell-free assay of in vitro production of amyloid peptides (Aβ) from APP-C99flag-tagged substrate, SDS-PAGE/western blotting
Assay type: biochemical
Details: CHAPS extracts of HeLa cell membranes incubated with APP-C99flag-tagged substrate plus peptide; DMSO control; western blot with antibody recognizing Aβ (FIG. 6)
Description: FIG. 6: Peptides that mimic the binding domains in PS1 or APP inhibit the in vitro production of amyloid peptides (Aβ). The PS1-APP binding is mediated by the C-terminus of PS1 (and the first transmembrane domain of PS1) and part of the APP transmembrane region downstream of the γ-secretase cleavage site (and bearing the FAD-associated mutations affecting the γ-secretase cleavage). Peptides mimicking these domains were synthesized as such or with a conserved transmembrane region (TMR) or palmityol group (palm) attached to it. The amino acid sequence of the transmembrane region is NH2-[…]-COOH (SEQ ID NO:20) and the origin of the TMR is fully described in PCT International Publication WO 02/00882. CHAPS extracts of HeLa cell membranes were incubated with the APP-C99flag-tagged substrate in the presence of DMSO (control) or the different peptides at the concentrations indicated (peptide). γ-secretase inhibitor (10 μM) was included as a positive control for Aβ inhibition. After the reaction, samples were analyzed by SDS-PAGE followed by western blotting using an antibody recognizing Aβ. […]
Fixed amounts of recombinant APP-C99 are mixed with cleared cell extracts (for example extracted with Triton X100, CHAPS, CHAPSO or Nonidet p40) and incubated overnight at 37° C. or 4° C. De novo formed Aβ is monitored by SDS/PAGE combined with western blotting. […]

T1 sequence (Q96BI3 whole entry, other chains not shown): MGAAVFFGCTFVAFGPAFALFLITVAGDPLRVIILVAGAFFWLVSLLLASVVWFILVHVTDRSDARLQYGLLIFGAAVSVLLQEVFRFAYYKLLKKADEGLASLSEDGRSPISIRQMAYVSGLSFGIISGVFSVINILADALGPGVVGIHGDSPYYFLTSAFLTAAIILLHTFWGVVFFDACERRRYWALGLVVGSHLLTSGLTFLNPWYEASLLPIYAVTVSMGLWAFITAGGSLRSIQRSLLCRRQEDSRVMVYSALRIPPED
T1 sequence (Q92542 34-709, other chains not shown, further chain): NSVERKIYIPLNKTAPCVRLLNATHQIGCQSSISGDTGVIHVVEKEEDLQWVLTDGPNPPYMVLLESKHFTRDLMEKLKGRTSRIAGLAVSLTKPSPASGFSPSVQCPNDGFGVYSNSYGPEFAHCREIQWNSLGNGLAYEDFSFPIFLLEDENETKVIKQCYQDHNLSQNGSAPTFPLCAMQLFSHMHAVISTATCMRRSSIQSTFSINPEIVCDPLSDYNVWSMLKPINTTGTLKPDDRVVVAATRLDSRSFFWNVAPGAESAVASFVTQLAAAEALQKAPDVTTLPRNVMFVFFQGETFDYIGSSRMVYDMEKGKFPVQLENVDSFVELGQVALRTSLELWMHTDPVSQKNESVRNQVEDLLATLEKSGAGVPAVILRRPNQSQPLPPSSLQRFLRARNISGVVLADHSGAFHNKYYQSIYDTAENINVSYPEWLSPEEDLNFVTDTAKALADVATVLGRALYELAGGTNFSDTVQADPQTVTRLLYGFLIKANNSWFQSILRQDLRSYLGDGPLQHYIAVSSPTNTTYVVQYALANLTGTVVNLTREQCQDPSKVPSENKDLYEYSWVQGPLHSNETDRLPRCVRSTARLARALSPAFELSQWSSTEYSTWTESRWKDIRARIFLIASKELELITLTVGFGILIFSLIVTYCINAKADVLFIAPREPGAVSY
T1 sequence (Q9NZ42 whole entry, other chains not shown, further chain): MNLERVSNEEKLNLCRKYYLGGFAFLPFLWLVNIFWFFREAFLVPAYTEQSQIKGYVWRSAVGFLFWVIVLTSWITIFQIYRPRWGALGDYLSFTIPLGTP

Row | Substance | inhibition of in vitro Aβ production
1 | NH2-ATVIVITLVMLK KKQ-TMR-COOH [SEQ ID NO:12] | highest inhibition
2 | NH2-VVIATVIVITLVMLKKKQ-TMR-COOH [SEQ ID NO:7] | highest inhibition
